Measurements reported in US20150272562A1 (ETHICON, published 2015).

What was measured:
[1] = target: T1, fibrin monomers, dimers and/or oligomers (UniProt P02671 36-629; P02675 45-491; P02679 27-437); assay: cell-based or functional assay
T1 sequence (looked up) 1: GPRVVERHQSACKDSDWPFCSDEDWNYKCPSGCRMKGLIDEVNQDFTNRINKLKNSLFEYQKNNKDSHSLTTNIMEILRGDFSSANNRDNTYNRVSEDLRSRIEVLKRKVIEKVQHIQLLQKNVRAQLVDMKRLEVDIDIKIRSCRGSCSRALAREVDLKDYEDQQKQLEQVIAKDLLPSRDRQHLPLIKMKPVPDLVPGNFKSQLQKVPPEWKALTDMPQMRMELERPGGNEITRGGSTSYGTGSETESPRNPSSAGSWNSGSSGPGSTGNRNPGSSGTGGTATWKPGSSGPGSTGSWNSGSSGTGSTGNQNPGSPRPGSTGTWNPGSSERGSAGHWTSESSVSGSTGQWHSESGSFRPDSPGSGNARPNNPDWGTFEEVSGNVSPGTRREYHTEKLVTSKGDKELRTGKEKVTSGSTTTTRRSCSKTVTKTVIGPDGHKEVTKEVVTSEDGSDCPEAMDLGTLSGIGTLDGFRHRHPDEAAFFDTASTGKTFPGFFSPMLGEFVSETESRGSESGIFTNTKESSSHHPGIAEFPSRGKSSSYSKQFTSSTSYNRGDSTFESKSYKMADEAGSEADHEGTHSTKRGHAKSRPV
T1 sequence (looked up) 2: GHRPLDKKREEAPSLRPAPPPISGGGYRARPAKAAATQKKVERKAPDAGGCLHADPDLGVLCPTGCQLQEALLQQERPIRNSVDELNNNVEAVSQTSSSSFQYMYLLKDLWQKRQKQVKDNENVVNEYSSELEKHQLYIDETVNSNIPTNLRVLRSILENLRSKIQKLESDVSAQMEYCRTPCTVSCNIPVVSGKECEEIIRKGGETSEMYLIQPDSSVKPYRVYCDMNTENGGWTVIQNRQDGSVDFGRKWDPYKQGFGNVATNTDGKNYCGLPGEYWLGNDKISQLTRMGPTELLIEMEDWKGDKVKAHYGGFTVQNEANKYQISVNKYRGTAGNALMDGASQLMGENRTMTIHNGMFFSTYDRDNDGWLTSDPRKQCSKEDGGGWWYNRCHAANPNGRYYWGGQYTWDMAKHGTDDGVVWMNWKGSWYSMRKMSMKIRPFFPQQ
T1 sequence (looked up) 3: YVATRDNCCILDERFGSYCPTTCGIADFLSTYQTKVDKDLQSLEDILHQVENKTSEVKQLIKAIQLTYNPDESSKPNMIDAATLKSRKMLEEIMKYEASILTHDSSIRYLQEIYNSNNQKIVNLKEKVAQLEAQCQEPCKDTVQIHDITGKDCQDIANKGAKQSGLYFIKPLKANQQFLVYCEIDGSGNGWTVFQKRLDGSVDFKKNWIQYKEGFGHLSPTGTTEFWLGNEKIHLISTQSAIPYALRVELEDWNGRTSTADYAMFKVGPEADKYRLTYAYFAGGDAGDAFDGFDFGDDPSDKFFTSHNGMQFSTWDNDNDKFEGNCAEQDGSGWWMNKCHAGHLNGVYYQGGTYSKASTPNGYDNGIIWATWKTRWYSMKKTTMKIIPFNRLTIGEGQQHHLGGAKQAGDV

[2] = target: T1, fibrin monomers, dimers and/or oligomers; assay: cell-based or functional assay; remark: listed apart in the source

In the case of GPRP [GPRP peptide (Gly-Pro-Arg-Pro)], the “fibrin polymerization; 40 mM GPRP, molar ratio above 340:1 GPRP:fibrin” value [1] is reported as greater than 14 days, the “Time to clot (cessation of flow on tube inversion); GPRP 0.1 mM, 1.1-fold GPRP:fibrin, 3% fibrin, thrombin 100 IU/ml” value [2] is reported as 5 s and the “Time to clot (cessation of flow on tube inversion); GPRP 0.2 mM, 2.3-fold GPRP:fibrin, 3% fibrin, thrombin 100 IU/ml” value [2] is reported as 7 s. The “Time to clot (cessation of flow on tube inversion); GPRP 0.5 mM, 5.7-fold GPRP:fibrin, 3% fibrin, thrombin 100 IU/ml” value [2] was 11 s, the “Time to clot (cessation of flow on tube inversion); GPRP 1 mM, 11.3-fold GPRP:fibrin, 3% fibrin, thrombin 100 IU/ml” value [2] was 13 s and the “Time to clot (cessation of flow on tube inversion); GPRP 1.5 mM, 17-fold GPRP:fibrin, 3% fibrin, thrombin 100 IU/ml” value [2] was 22 s. For the same binder, the “Time to clot (cessation of flow on tube inversion); GPRP 2 mM, 22.7-fold GPRP:fibrin, 3% fibrin, thrombin 100 IU/ml” value [2] was 28 s, the “Time to clot (cessation of flow on tube inversion); GPRP 3 mM, 34-fold GPRP:fibrin, 3% fibrin, thrombin 100 IU/ml” value [2] was 2.5 min and the “Time to clot (cessation of flow on tube inversion); GPRP 4 mM, 45-fold GPRP:fibrin, 3% fibrin, thrombin 100 IU/ml” value [2] was 8 min. The “Time to clot (cessation of flow on tube inversion); GPRP 5 mM, 56.7-fold GPRP:fibrin, 3% fibrin, thrombin 100 IU/ml” value [2] was 15 min.
